Test results published in US20240165163A1.

Target: human CD19 (human) (UniProt P15391)
Test: cell-based or functional assay

Chain of UniProt P15391 (P15391 20-556): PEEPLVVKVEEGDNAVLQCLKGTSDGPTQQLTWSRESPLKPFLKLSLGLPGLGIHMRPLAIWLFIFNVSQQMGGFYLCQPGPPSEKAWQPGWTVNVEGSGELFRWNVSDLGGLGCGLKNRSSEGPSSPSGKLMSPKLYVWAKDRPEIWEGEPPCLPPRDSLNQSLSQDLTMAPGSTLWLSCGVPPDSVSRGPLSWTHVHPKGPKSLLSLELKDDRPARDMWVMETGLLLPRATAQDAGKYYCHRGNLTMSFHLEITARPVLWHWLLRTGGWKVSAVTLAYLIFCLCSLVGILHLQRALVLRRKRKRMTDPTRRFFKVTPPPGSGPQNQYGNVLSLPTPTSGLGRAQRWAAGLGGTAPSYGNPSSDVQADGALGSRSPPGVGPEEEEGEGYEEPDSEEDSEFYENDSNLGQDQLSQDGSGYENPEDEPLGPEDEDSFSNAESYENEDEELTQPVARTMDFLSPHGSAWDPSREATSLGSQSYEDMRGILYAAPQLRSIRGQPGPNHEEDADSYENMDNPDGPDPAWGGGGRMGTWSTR

Substance: antiCD19scFv-CD8Hinge2-Notch1TMD-Notch2STS-truncCD28delTPRRP-CD3z-Gal4VP64 (receptor)
- Circuit Expression (inducible BFP reporter): > 80%
